Measurements published in US20200255503A1.

B1: H2M1236N (antibody, mouse IgG2, V domains shown)
VH: QVQLQESGPGLVKPSETLSLTCTVSGGSISNYYWSWIRQPPGKGLEWIGYIYYSGRTNYNPSLKSRVTISVDTSKNQFSLKLRSVTAADTAVYYCARHRITRTADSFDYWGQGTLVTVSS
VL: DIQMTQSPSSLSASVGDRVTITCQASQDITNYLNWYQQKPGKAPKLLIYDASNLETGVPSRFSGSGSGTDFTFTISSLQPEDVATFYCHQYGDLPYTFGQGTKLEIK
B2: H4H2797P (antibody, human IgG4, V domains shown)
VH: QVQLVESGGGVVLPGRSLRLSCAASGFTFSSYLMYWVRQAPGKGLEWVAVIWYDGSNKFYGDSVKGRFTISRDNSKNTLYLQMNSLRAEDTAVYYCARDNGNSGYEDSWNAFDIWGQGTMVTVSS
VL: DIQMTQSPSSLSASVGDRVTITCRASQDIYNYLAWFQQKPGKAPKSLIYAASSLQTGVPSQFSGSGSGTDFTLTISSLQPEDFATYYCQQYNNYPFTFGPGTKVDIK
B3: H4H2597B (antibody, human IgG4, V domains shown)
VH: EVQLVESGGGLVQPGGSLRLSCAVSGFTFSNYAMNWVRQAPGKGLEWVSVISDSGRSTYYADSVKGRFTISRDNSKNTLYLQMNSLRAEDTAVYFCAKRYNWNLHYFDYWGQGTTVTVSS
VL: EIVLTQSPDFQSVTPKEKVTITCRASQSIGGSLHWYQQKPDQSPKLLIKYASQSFSGVPSRFSGSGSGTDFTLTINSLEAEDAATYYCLQSSSLRTFGQGTKVEIKR
B4: H4H2606B (antibody, human IgG4, V domains shown)
VH: EVQLVESGGGLVKPGGSLRLSCAASGFTFSDYYMNWIRQAPGKGLEWVSYISSSGNSIYYADSVKGRFTISRDNAKNSLFLQMSSLRAEDTAVYYCARDGRYNDRRRGYYWGQGTLVTVSS
VL: EIVMTQSPDFQSVTPKEKVTITCRASQSIGSSLHWYQQKPDQSPKLLIKYASQSFSGVPSRFSGSGSGTDFTLTINSLEAEDAATYYCLQSSSLRTFGQGTKVEIKR
B5: H1M1230N (antibody, V domains shown)
VH: EVQLVESGGGLVQPGGSLRLSCTASGFIFSNFWMTWVRQAPGKGLEWVANIKQDGSETYCVDSVKGRFTISRDHAKNSLFLQMNSLRAEDTAVYYCARGAGTIYYYGMDVWGQGTTVIVSS
VL: DIQMTQSPSSVSASVGDRLTITCRASQDISSWLTWYQQKPGKAPNLLIYAASGLQSGVPSRFSGSGSGTDFTLTISNLQPEDFATYYCQQANSFPLTFGQGTRLEIK
B6: H1M1241N (antibody, V domains shown)
VH: EVQLVESGGGLVKPGGSLRLSCAASGFTFSSYSMNWVRQAPGKGLEWVSSISSRSSYIYYADSVKGRFTISRDNAKNSLYLQMNSLRAEDTAVYYCARDHIVVVPGASYYYYGMDVWGQGTTVTVSS
VL: DIQMTQSPSSLSASVGDRVTITCRASQGIRNDLGWYQQKPGKAPKRLISAASSLQSGVPSRFSGSGSGTEFTLTISSLQPEDFATYYCLQHNSYPLTFGGGTKVEIK
B7: H2M1233N (antibody, mouse IgG2, V domains shown)
VH: QVVLVESGGGVVQPGRSLRLSCAASGFTFSSYGMHWVRQAPGKGLEWVAVIWYDGSNKYYVDSVKGRFTISRDNSNNTIYLQMNSLRAEDTAVYYCARSLIPVAGTDPIFGYWGQGTLVTVSS
VL: DIQMTQSPSTLSASVGDRVTITCRASQSVSSWLAWYQQKPGKAPKLLIFKASGLESGVPFRFSGSGSGTEFTLTISSLQPDDFATYYCQQYNTYSPTFGQGTKVEIK
B8: H2M1237N (antibody, mouse IgG2, V domains shown)
VH: QVVLVESGGGVVQPGRSLRLSCAASGFTFSSYGMHWVRQAPGKGLEWVAVIWYDGSIKYYADSVKGRFTISRDNSNNTIYLQMNSLRAEDTAVYYCARALIPVAGTDPIFGYWGQGTLVTVSS
VL: DIQMTQSPSTLSASVGDRVTITCRASQSVSSWLAWYQQKPGKAPKLLIFKTSGLESGVPFRFSGSGSGTEFTLTISSLQPDDFATYYCQQYNTYSPTFGQGTKVEIK
B9: H2M1242N (antibody, mouse IgG2, V domains shown)
VH: EVQLVESGGGLVRPGGSLRLSCAASGFTFTSYAMNWVRQAPGKGLEWVSSISSYSSYIYIADSVKGRFTLSRDNAKNSLYLQMHSLRPEDTAVYFCAREGYSAYSYFDFWGRGTLVTVSS
VL: DIQMTQSPSTLSASVGDRVTITCRASQSVISWLAWYQQKPGKAPKLLIHRASSLESGVPSRFSGSGSGTEFTLTISGLQPDDFATYYCQQYNTYFPTFGQGTKVEVK
B10: H4H2590S (antibody, human IgG4, V domains shown)
VH: QVQLVESGGGLVKPGGSLRLSCAASGFTFSDYYMNWIRQAPGKGLEWISYISSGGSTTYYADSVKGRFTISRDNAKNSLYLQMNSLRAEDTAVYYCARDGKYNTSPGDYWGQGTLVTVSS
VL: EIVLTQSPDFQSVTPKEKVTITCRASQSIGSSLHWYQQKPDQSPKLLIKYASQSFSGVPSRFSGSGSGTDFTLTINSLEAEDAATYYCLQSSSLRTFGQGTKVDIK
B11: H4H2608B (antibody, human IgG4, V domains shown)
VH: EVQLVESGGGLVKPGGSLRLSCAASGFTFSDYYMNWIRQAPGKGLEWISYISSSDDTTYYADSVKGRFTISRDNAKNSLYLQMNSLRAEDTAVYYCARDGKYNTVAGDHWGQGTLVTVSS
VL: EIVMTQSPDFQSVAPKEKVTITCRASQNIGSSLHWYQQKPDQSPKLLIKYASQSFSGVPSRFSGSGSGTDFTLTINSLEAEDAATYYCLQSYTLRTFGQGTKVEIKR
B12: H4H2592B (antibody, human IgG4, V domains shown)
VH: QVQLVESGGGLVKPGGSLRLSCAASGFTFSDYYMNWIRQAPGKGLEWISYISSSGSTTYYADSVKGRFTISRDNAKNSLFLQMNSLRGEDTAVYYCARDGRYNTVAGDYWGQGTTVTVSS
VL: EIVMTQSPDFQSVAPKEKVTITCRASQNIGGSLHWYQQKPDQSPKLLIKYASQSFSGVPSRFSGSGSGTDFTLTINSLEAEDAATYYCLQSYTLRTFGQGTKVEIKR
B13: H4H2607B (antibody, human IgG4, V domains shown)
VH: EVQLVESGGGLVKPGGSLRLSCAASGFTFSDYYMNWIRQAPGKGLEWISYLSSSGSATYYADSVKGRFTISRDNAKNSLYLQMNSLRAEDTAVYYCARDGKYNTVAGDYWGQGTTVTVSS
VL: DIQLTQSPSSLSASVGDRVTITCRASQGIRNDLGWYQQKPGKAPKRLIYAASSLQSGVPSRFSGSGSGTEFTLTISSLQPEDFATYYCLQHNSYPYTFGQGTKVEIKR

Biological target: natural Fel d1 (cat (Felis domesticus)) (UniProt P30438)
Experiment: SPR, mAb captured, nFel d1 injected, 25 C

Binder	Kd	koff	kon	t1/2
B1	4.55 nM	0.00142 s⁻¹	312000 M⁻¹ s⁻¹	8 min
B2	35.4 nM	0.00713 s⁻¹	202000 M⁻¹ s⁻¹	2 min
B3	0.65 nM	0.0015 s⁻¹	2.31e+06 M⁻¹ s⁻¹	8 min
B4	0.765 nM	0.000707 s⁻¹	924000 M⁻¹ s⁻¹	16 min
B5	3.37 nM	0.000869 s⁻¹	258000 M⁻¹ s⁻¹	13 min
B6	3.63 nM	0.000662 s⁻¹	182000 M⁻¹ s⁻¹	17 min
B7	1.4 nM	0.000353 s⁻¹	253000 M⁻¹ s⁻¹	33 min
B8	0.982 nM	0.000276 s⁻¹	281000 M⁻¹ s⁻¹	42 min
B9	3.14 nM	0.000604 s⁻¹	192000 M⁻¹ s⁻¹	19 min
B10	0.655 nM	0.000802 s⁻¹	1.23e+06 M⁻¹ s⁻¹	14 min
B11	2.05 nM	0.00106 s⁻¹	516000 M⁻¹ s⁻¹	11 min
B12	0.641 nM	0.000728 s⁻¹	1.14e+06 M⁻¹ s⁻¹	16 min
B13	0.307 nM	0.00091 s⁻¹	2.97e+06 M⁻¹ s⁻¹	13 min
